This assay concerns the target R.CcoLI(D225N) mutant (Campylobacter coli). As to the kind of experiment: SEC; Superdex 200 HR 10/30; samples 2.3 uM; 10 mM MES pH 6.0, 200 mM NaCl, 1 mM TCEP; size estimated against marker proteins (aldolase, conalbumin, chymotrypsinogen A, ribonuclease A).

For the substance R.CcoLI(D225N) mutant (enzyme), the stoichiometry N is 2.

The term stoichiometry N denotes the number of molecules, sites or subunits per partner or assembly.

Source of the values: paper PMC7806768.
